Data published in US20250019440A1 (Zymeworks, published 2025).
Changes are numbered by the printed parent chain. Names and notes keep the numbering of the source. One block for each binder: values may come before it.

Columns and labels:
CD3 on T cells [1] = target: T1, CD3 on T cells (Homo sapiens (Human), UniProt P07766 23-207; P04234 22-171; P09693 23-182); assay: cell-based or functional assay
PD-L1 on cells = PD-L1 on cells (UniProt Q9NZQ7 19-290, limits assumed); assay: cell-based or functional assay
CD3 on T cells [2] = target: T1, CD3 on T cells; assay: cell-based or functional assay; remark: listed apart in the source
Human PD-L1 = target: T2, Human PD-L1 (human, UniProt Q9NZQ7 19-239); assay: SPR, PD-L1 amine-coupled, variant as analyte
T2 construct: Amine-coupled to a CM5 chip for SPR; also called recombinant human PD-L1

Human CD3 (recombinant) = Human CD3 (recombinant) (human); assay: SPR, CD3 amine-coupled, variant as analyte, 1:1 model
Chain of Human CD3 (recombinant) (human) (chain, as listed by the source): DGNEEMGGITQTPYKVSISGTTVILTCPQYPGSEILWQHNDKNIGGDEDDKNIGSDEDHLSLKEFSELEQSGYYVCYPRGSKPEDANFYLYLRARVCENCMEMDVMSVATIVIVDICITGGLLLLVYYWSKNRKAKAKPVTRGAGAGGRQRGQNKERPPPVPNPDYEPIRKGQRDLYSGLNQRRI

T1 sequence (P07766 23-207 limits assumed, chain 1 of 3): as the sequence (chain, as listed by the source) above
T1 sequence (P04234 22-171 limits assumed, chain 2 of 3): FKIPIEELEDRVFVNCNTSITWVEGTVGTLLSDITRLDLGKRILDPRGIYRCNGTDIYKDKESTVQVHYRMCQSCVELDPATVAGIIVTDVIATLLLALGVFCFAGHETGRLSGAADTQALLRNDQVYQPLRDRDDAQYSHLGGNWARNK
T1 sequence (P09693 23-182 limits assumed, chain 3 of 3): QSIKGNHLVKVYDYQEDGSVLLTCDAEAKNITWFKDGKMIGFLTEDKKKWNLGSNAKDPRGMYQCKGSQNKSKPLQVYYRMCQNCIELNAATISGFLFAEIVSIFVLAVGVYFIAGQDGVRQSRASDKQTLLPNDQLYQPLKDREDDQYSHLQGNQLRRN
Chain of PD-L1 on cells (Q9NZQ7 19-290 limits assumed): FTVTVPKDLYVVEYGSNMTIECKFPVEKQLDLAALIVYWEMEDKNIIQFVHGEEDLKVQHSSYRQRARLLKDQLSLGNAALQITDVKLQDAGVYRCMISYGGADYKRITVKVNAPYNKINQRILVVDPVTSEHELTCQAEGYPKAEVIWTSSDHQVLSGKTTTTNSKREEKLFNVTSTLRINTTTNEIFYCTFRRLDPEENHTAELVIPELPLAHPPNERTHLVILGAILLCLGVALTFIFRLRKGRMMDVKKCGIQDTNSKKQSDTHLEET
T2 sequence (Q9NZQ7 19-239 limits assumed): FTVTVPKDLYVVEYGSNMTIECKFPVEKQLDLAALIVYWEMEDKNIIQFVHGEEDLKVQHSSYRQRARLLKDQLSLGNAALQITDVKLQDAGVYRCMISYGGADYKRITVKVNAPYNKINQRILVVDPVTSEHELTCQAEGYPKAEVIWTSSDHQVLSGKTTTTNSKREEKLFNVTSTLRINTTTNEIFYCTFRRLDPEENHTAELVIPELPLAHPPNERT

B2: v39000 - A132L (other)
heavy chain 1 (H1): EVQLVESGGGLVQPGGSLRLSCAASGVTFNYYGMSWIRQAPGKGLEWVASITSSGGRIYYPDSVKGRFTISRENTQKTLYLQMNSLRAEDTAVYYCTLDGRDGWVAYWGQGTLVTVSSASTKGPSVFPLAPSSKSTSGGTAALGCLVKDYFPEPVTVSWNSGALTSGVHTFPAVLQSSGLYSLSSVVTVPSSSLGTQTYICNVNHKPSNTKVDKKVEPKSCDKTHTCPPCPAPEAAGGPSVFLFPPKPKDTLMISRTPEVTCVVVSVSHEDPEVKFNWYVDGVEVHNAKTKPREEQYNSTYRVVSVLTVLHQDWLNGKEYKCKVSNKALPAPIEKTISKAKGQPREPQVYVYPPSRDELTKNQVSLTCLVKGFYPSDIAVEWESNGQPENNYKTTPPVLDSDGSFALVSKLTVDKSRWQQGNVFSCSVMHEALHNHYTQKSLSLSPGGGGGSGQVQLVESGGGLVQPGGSLRLSCSVSGIDLSSNPMIWVRQAPGKGLQYIGIIDTDGSTYYADWAKGRFTISKDSTTVYLQINSPRAEDTAVYYCARRLHGSSNGYYDDLWGQGTLVTVSSGGGGSGGGGSGGGGSGGGGSDGQMTQSPSSVSASVGDRVTITCQASQSIYSYLSWYQQKPGQRPKLLIYKASTLASGVPSRFSGSGSGTDFTLTISSVQPEDFATYYCQQGYTVTNVDKNTFGGGTKVEIK
light chain (L1): NFMLTQPHSVSESPGKTVTISCKRNTGNIGSNYVNWYQQHEGSSPTTIIYRNDKRPDGVSDRFSGSIDRSSKSASLTISNLKTEDEADYFCQSYSSGFIFGGGTKLTVLGQPKAAPSVTLFPPSSEELQANKATLVCLISDFYPGAVTVAWKADSSPVKAGVETTTPSKQSNNKYAASSYLSLTPEQWKSHRSYSCQVTHEGSTVEKTVAPTECS
heavy chain 2 (H2): NPPTFSPALLVVTEGDNATFTCSFSNTSESFVLNWYRMSPSNQTDKLAAFPEDRSQPGQDARFRVTQLPNGRDFHMSVVRARRNDSGTYLCGAISLAPKLQIKESLRAELRVTEGGGGSGQVQLVESGGGLVQPGGSLRLSCSVSGIDLSSNPMIWVRQAPGKGLQYIGIIDTDGSTYYADWAKGRFTISKDSTTVYLQINSPRAEDTAVYYCARRLHGSSNGYYDDLWGQGTLVTVSSGGGGSGGGGSGGGGSGGGGSDGQMTQSPSSVSASVGDRVTITCQASQSIYSYLSWYQQKPGQRPKLLIYKASTLASGVPSRFSGSGSGTDFTLTISSVQPEDFATYYCQQGYTVTNVDKNTFGGGTKVEIKAAEPKSSDKTHTCPPCPAPEAAGGPSVFLFPPKPKDTLMISRTPEVTCVVVSVSHEDPEVKFNWYVDGVEVHNAKTKPREEQYNSTYRVVSVLTVLHQDWLNGKEYKCKVSNKALPAPIEKTISKAKGQPREPQVYVLPPSRDELTKNQVSLLCLVKGFYPSDIAVEWESNGQPENNYLTWPPVLDSDGSFFLYSKLTVDKSRWQQGNVFSCSVMHEALHNHYTQKSLSLSPG
EC50 (read off the curve); hybrid PD-1/PD-L1 reporter gene assay, delta RLU, PD-1+ Jurkat T cells with SNU-620 cells, top right graph; composite signal of CD3 engagement and PD-1:PD-L1 blockade (PD-L1 on cells): ~40 pM

B3: v39001 (bispecific) (other)
heavy chain 1 (H1): B2 heavy chain 1 (H1)
light chain (L1): B2 light chain (L1)
heavy chain 2 (H2): B2 heavy chain 2 (H2) with K46A, I94A, L100A
EC50 (read off the curve); hybrid PD-1/PD-L1 reporter gene assay, delta RLU, PD-1+ Jurkat T cells with SNU-620 cells, top right graph (CD3 on T cells [2]): ~50 pM

B4: v39004 - A132L (other)
heavy chain 1 (H1): B2 heavy chain 1 (H1)
light chain (L1): B2 light chain (L1)
heavy chain 2 (H2): QVQLVESGGGLVQPGGSLRLSCSVSGIDLSSNPMIWVRQAPGKGLQYIGIIDTDGSTYYADWAKGRFTISKDSTTVYLQINSPRAEDTAVYYCARRLHGSSNGYYDDLWGQGTLVTVSSGGGGSGGGGSGGGGSGGGGSDGQMTQSPSSVSASVGDRVTITCQASQSIYSYLSWYQQKPGQRPKLLIYKASTLASGVPSRFSGSGSGTDFTLTISSVQPEDFATYYCQQGYTVTNVDKNTFGGGTKVEIKAAEPKSSDKTHTCPPCPAPEAAGGPSVFLFPPKPKDTLMISRTPEVTCVVVSVSHEDPEVKFNWYVDGVEVHNAKTKPREEQYNSTYRVVSVLTVLHQDWLNGKEYKCKVSNKALPAPIEKTISKAKGQPREPQVYVLPPSRDELTKNQVSLLCLVKGFYPSDIAVEWESNGQPENNYLTWPPVLDSDGSFFLYSKLTVDKSRWQQGNVFSCSVMHEALHNHYTQKSLSLSPGGGGGSGDRPWNPPTFSPALLVVTEGDNATFTCSFSNTSESFVLNWYRMSPSNQTDKLAAFPEDRSQPGQDARFRVTQLPNGRDFHMSVVRARRNDSGTYLCGAISLAPKLQIKESLRAELRVTE
EC50 (read off the curve); hybrid PD-1/PD-L1 reporter gene assay, delta RLU, PD-1+ Jurkat T cells with SNU-620 cells, bottom graph; composite signal of CD3 engagement and PD-1:PD-L1 blockade (PD-L1 on cells): ~40 pM

B6: v38424 (other)
heavy 1: EVQLVESGGGLVQPGGSLRLSCAASGVTFNYYGMSWIRQAPGKGLEWVASITSSGGRIYYPDSVKGRFTISRENTQKTLYLQMNSLRAEDTAVYYCTLDGRDGWVAYWGQGTLVTVSSASTKGPSVFPLAPSSKSTSGGTAALGCLVKDYFPEPVTVSWNSGALTSGVHTFPAVLQSSGLYSLSSVVTVPSSSLGTQTYICNVNHKPSNTKVDKKVEPKSCDKTHTCPPCPAPEAAGGPSVFLFPPKPKDTLMISRTPEVTCVVVSVSHEDPEVKFNWYVDGVEVHNAKTKPREEQYNSTYRVVSVLTVLHQDWLNGKEYKCKVSNKALPAPIEKTISKAKGQPREPQVYVYPPSRDELTKNQVSLTCLVKGFYPSDIAVEWESNGQPENNYKTTPPVLDSDGSFALVSKLTVDKSRWQQGNVFSCSVMHEALHNHYTQKSLSLSPGGGGGSGDRPWNPPTFSPALLVVTEGDNATFTCSFSNTSESFVLNWYRMSPSNQTDALAAFPEDRSQPGQDARFRVTQLPNGRDFHMSVVRARRNDSGTYLCGAASLAPKAQIKESLRAELRVTE
light: B2 light chain (L1)
heavy 2: QVQLVESGGGLVQPGGSLRLSCSVSGIDLSSNPMIWVRQAPGKGLQYIGIIDTDGSTYYADWAKGRFTISKDSTTVYLQINSPRAEDTAVYYCARRLHGSSNGYYDDLWGQGTLVTVSSGGGGSGGGGSGGGGSGGGGSDGQMTQSPSSVSASVGDRVTITCQASQSIYSYLSWYQQKPGQRPKLLIYKASTLASGVPSRFSGSGSGTDFTLTISSVQPEDFATYYCQQGYTVTNVDKNTFGGGTKVEIKAAEPKSSDKTHTCPPCPAPEAAGGPSVFLFPPKPKDTLMISRTPEVTCVVVSVSHEDPEVKFNWYVDGVEVHNAKTKPREEQYNSTYRVVSVLTVLHQDWLNGKEYKCKVSNKALPAPIEKTISKAKGQPREPQVYVLPPSRDELTKNQVSLLCLVKGFYPSDIAVEWESNGQPENNYLTWPPVLDSDGSFFLYSKLTVDKSRWQQGNVFSCSVMHEALHNHYTQKSLSLSPG
notes: CD3 Fab x Cldn18.2 scFv Fc, attenuated (KO) PD-1 attached to HC1 (C-term)
binding result (Human PD-L1): no binding
Kd (Human CD3 (recombinant)): 37 nM

Second part, the binder after the results:

EC50 (read off the curve); hybrid PD-1/PD-L1 reporter gene assay, delta RLU, PD-1+ Jurkat T cells with SNU-620 cells, bottom right graph (CD3 on T cells [1]): ~50 pM
EC50 (read off the curve); hybrid PD-1/PD-L1 reporter gene assay, delta RLU, PD-1+ Jurkat T cells with SNU-620 cells, bottom right graph; v39009 varied in the presence of atezolizumab (CD3 on T cells [1]): ~40 pM
B1: v39009 (bispecific) (other)
heavy chain 1 (H1): B2 heavy chain 1 (H1)
light chain (L1): NFMLTQPHSVSESPGKTVTISCKRNTGNIGSNYVNWYQQHEGSSPTTIIYRNDKRPDGVSDRFSGSIDRSSKSASLTISNLKTEDEADYFCQSYSSGFIFGGGTKLTVLGQPKAAPSVTLFPPSSEELQANKATLVCLISDFYPGAVTVAWKADSSPVKAGVETTTPSKQSNNKYAASSYLSLTPEQWKSHRSYSCQVTHEGSTVEKTVAPTECSGGGGSGDRPWNPPTFSPALLVVTEGDNATFTCSFSNTSESFVLNWYRMSPSNQTDALAAFPEDRSQPGQDARFRVTQLPNGRDFHMSVVRARRNDSGTYLCGAASLAPKAQIKESLRAELRVTE
heavy chain 2 (H2): B6 heavy 2

EC50 (read off the curve); hybrid PD-1/PD-L1 reporter gene assay, delta RLU, PD-1+ Jurkat T cells with SNU-620 cells, bottom graph (CD3 on T cells [2]): ~50 pM
B5: v39005 (bispecific) (other)
heavy chain 1 (H1): B2 heavy chain 1 (H1)
light chain (L1): B2 light chain (L1)
heavy chain 2 (H2): B4 heavy chain 2 (H2) with K539A, I587A, L593A
